# Laboratory results from the supplement of paper PMC9170038.
# System: MS2 coat protein
# Assay: apparent KD of MS2 coat protein; designed switch direction (-1 OFF switch, 1 ON switch): -1; higher = weaker reporter binding
# Procedure, shortened: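 Each step of the titration lasted 0.8–1.5 h at the lowest concentration and 10–20 min at the highest. The protein, SNAP-549-labelled MS2 coat protein, went from 0.7 or 1.5 nM doubling to 3 µM over RNA switches transcribed on Illumina chips by stalled E. coli RNA polymerase. Normalised cluster fluorescence was curve-fitted, and the per-design median over clusters is given as apparent KD.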
# [1] = Eterna round: R95, input ligand: FMN 200 uM
# [2] = Eterna round: R95, input ligand: microRNA oligo, concentration not stated
# [3] = Eterna round: R95, input ligand: none
# [4] = input ligand: microRNA oligo, concentration not stated
Sequence,apparent KD of MS2 coat protein (input ligand: FMN 200 uM),apparent KD of MS2 coat protein (input ligand: none),apparent KD of MS2 coat protein [1],apparent KD of MS2 coat protein [2],apparent KD of MS2 coat protein [3],apparent KD of MS2 coat protein [4]
"AAAAAAAAAGUGAGGAUAUGCUCUACCUCGGUAGAGCAGAAGGCACAUGAGGAUCACCCAUGUGACUCCUCAUU [Omei Ex4B B25] (Eterna round: R97, puzzle: Brourd's mod of Exclusion 4)",29.6 nM,19.1 nM,–,–,–,–
AAAAAACAAGGAUAUACGAAGGAGGGUUAUCUUAAUUUUUGACAUGAGGAUCACCCAUGUAGAAGGUGUUAAAA [JR_Exclusion2_Sub011] (puzzle: Exclusion 2),–,–,571 nM,202 nM,156 nM,–
AAAAAACAAGGAUAUACGGAUGAAGAUUGUCUUAAUUUUUGACAUGAGGAUCACCCAUGUAGAAGGUGUUAAAA [JR_Exclusion2_Sub016] (puzzle: Exclusion 2),–,–,–,158 nM,–,–
AAAAAGGUAGGAUAUACGAAAAAAAAGGGUAGAAAAAAAACACAUGAGGAUCACCCAUGUAGAAGGACCAAAAA [salish99_ex2_r3_043] (puzzle: Exclusion 2),–,–,97.3 nM,26.8 nM,26.1 nM,–
AAAAAGUGAGGAUAUGCAUAAGGACCCGGGAGGGAAAUAAAACAUGAGGAUCACCCAUGUAGAAGGCGCAAAAA [Exclss2-II] (puzzle: Exclusion 2),–,–,17.2 nM,16 nM,15.7 nM,–
"AAAACGUGAGCAGGAUAUGCAAUAAGAUCAGGUCUUCACAUGAGGAUCACCCAUGUAUAAGGGACGCAGAAGGGCUGAUAAAAG [Aesedat] (Eterna round: R96, puzzle: Exclusion NG 2)",98.4 nM,60.9 nM,–,–,–,49.6 nM
"AAAAGAACAUGAGGAUCACCCAUGUGAACCUUCGUUCGACCUCAGGAUAUCCGCCACCGUCCGCAGGAGAAGGGAGGUAAAAUA [Quraa] (Eterna round: R96, puzzle: Exclusion NG 3)",169 nM,58.8 nM,–,–,–,45.6 nM
AAAAGAAGUGUUAGGAUAUGUGGAAGCAGAAAGACACAGAAGGAACAUGAGGAUCACCCAUGUGACCAAAGAAC [Maenonis] (puzzle: Brourd's mod of Exclusion 4),–,–,27.1 nM,15.8 nM,15.3 nM,–
"AAAAGCCUAGGAUAUACUUGAGGAUCACCCAAGUAGGGUCGCAUGGACCCGUCCUCGUGUAGAAGGAGGAAAAG [Orreteceer] (Eterna round: R97, puzzle: Exclusion 3)",108 nM,46.7 nM,–,–,–,–
AAAAGGCUAGGAUAUACAUGAGGAUCACCCAUGUGUACUGGACAUGCGGUAUGCGGAUGUAGAAGGAGUAUAAA [Esrere] (puzzle: Exclusion 3),–,–,–,22.4 nM,–,–
AAAAGGUCAGGAUAUCGGCGCGGUUGGGAGGCAGGUCCGCGCGAGAAGGGACAUGAGGAUCACCCAUGUUAAAA [Excls4-III] (puzzle: Exclusion 4),–,–,–,20.7 nM,–,–
AAAAGUUAAGGAUAUACAGGGAGCCGCGGCGUCUGGCCGCAACAUGAGGAUCACCCAUGUAGAAGGUAGCCAAA [Maatmaso] (puzzle: Exclusion 2),–,–,61.5 nM,20.6 nM,30.5 nM,–
"AAAAUGGCAGGAUAUACAUGAGGAUCACCCAUGUUCGUCUUUACAUGUAAAAUGCUCUGUAGAAGGGCCUCGAA [Quised] (Eterna round: R97, puzzle: Exclusion 3)",47.1 nM,21.9 nM,–,–,–,–
AAAAUGUAAGGAUAUAGCCGGAACAAAGGGUCAAUAACCGGCUAGAAGGUACAUGAGGAUCACCCAUGUAAGAA [Excls4-V] (puzzle: Exclusion 4),–,–,19.4 nM,13.3 nM,15.8 nM,–
AAAAUGUAAGGAUAUGGCCGGGACCCAGGGUUUGGACCCGGCUAGAAGGUACAUGAGGAUCACCCAUGUAAGAA [Excls4-VIII] (puzzle: Exclusion 4),–,–,–,16.1 nM,–,–
"AAACAAAAGGCAGGAUAUCCUCGUCAACACCACAAGUCCACUCGGACAUGAGGAUCACCCAUGUAGGAGAAGGGCCAGAAAUAC [Bevearla] (Eterna round: R96, puzzle: Exclusion NG 2)",88.8 nM,19.6 nM,–,–,–,17.5 nM
"AAACACGGAGGAUAUGGUCACUAGGACAUGAGGAUCACCCAUGUGGGAGUGCUAGUGCUACCAGAAGGUUGAAGUC [Eternabot (L1) Solution 54] (Eterna round: R97, puzzle: Exclusion 5)",66.6 nM,76.1 nM,–,–,–,–
"AAACAGCGAGGAUAUGCAGACGCUCCUUCCUCACGUCAAGGACAUGAGGAUCACCCAUGUAGAAGGCGCACAAC [Isriteti] (Eterna round: R97, puzzle: Exclusion 2)",116 nM,76 nM,–,–,–,–

Sequence,apparent KD of MS2 coat protein (input ligand: FMN 200 uM),apparent KD of MS2 coat protein (input ligand: none),apparent KD of MS2 coat protein [1],apparent KD of MS2 coat protein [2],apparent KD of MS2 coat protein [3],apparent KD of MS2 coat protein [4]
"AAACCUGCCCAUGACCGCAAGCUUUUUGCUUGUCUUACCACAUGAGGAUCACCCAUGUGACAUGGGCUCCUUAUAAA [Usteorrila] (puzzle: Sensor v3, turn-off variant 2)",–,–,12.7 nM,9.84 nM,11.5 nM,–
"AAACCUUGUGUCAGGAUAUGCAGAGGGAACGCCAGGCAGAAGGGACAUGAGGAUCACCCAUGUACAUUUUAAAC [BmEX4 B.19] (Eterna round: R97, puzzle: Brourd's mod of Exclusion 4)",487 nM,39.2 nM,–,–,–,–
"AAACGGCAGGGAGGAUAUGCUUACCUGGGUCGUCUUCAAACAUGAGGAUCACCCAUGUAGUCGACGCAGAAGGCCCUCAAAGCC [JL ViennaUCT Ontiis mod] (Eterna round: R96, puzzle: Exclusion NG 2)",144 nM,18.6 nM,–,–,–,18 nM
AAAGAACUAGGAUAUCGCGCUACAGACAUGAGGAUCACCCAUGUAAUCGCAUGUCAAGUUUGAGAAGGAGUGAAGA [Usissodi] (puzzle: Exclusion 5),–,–,21.5 nM,11.9 nM,9.9 nM,–
"AAAGAAGAGAGAAAAUAACACAUGAGGAUCACCCAUGUGAGAAGUUGAGGGUGAUACAGGCUUUUUGCUCGUCUUAU (puzzle: Sensor v3, turn-off variant 1)",–,–,233 nM,263 nM,332 nM,–
"AAAGAUCAAGGAUAUGCAACGGCACACAUGAGGAUCACCCAUGUGAUGUACGUUGUGUCGGCAGAAGGUGAGGGUC [JR_Ex5_Sub056] (Eterna round: R97, puzzle: Exclusion 5)",13.8 nM,14.3 nM,–,–,–,–
"AAAGGACGAUUAGGAUAUUCGGUUCAAGGUAAAGAAGAAGGAAUCGUUCCAUACUUAACAUGAGGAUCACCCAUGUGGGUCUAG [Eternabot solution 38] (Eterna round: R96, puzzle: Exclusion NG 1)",–,–,–,–,–,25.5 nM
AAAGUGUGAGGAUAUCCUGGGCUGGGCCGGGAGGUUCGGUUGGAGAAGGCACAUGAGGAUCACCCAUGUAACGG [Excls4-IX] (puzzle: Exclusion 4),–,–,–,57.1 nM,–,–
"AAAUACAAGCAAAGAUCUUACAUGAGGAUCACCCAUGUGCUCGUCUUAUAAAGUACUAUCACGAAAGUGAUAGUACA [Sensor 3, v1 - 29] (puzzle: Sensor v3, turn-off variant 1)",–,–,19.5 nM,108 nM,19.1 nM,–
"AAAUAGCAUGAGGAUAUUGAACUGUAUUCAGUACGAGAAGGCAUGACAUGAGGAUCACCCAUGUUUUGUUGGGA [EX6 #5] (Eterna round: R97, puzzle: Exclusion 6)",126 nM,27 nM,–,–,–,–
"AAAUAGGCAGGAUAUACAUGAGGAUCACCCAUGUAAAUUUUUCGUUUAACUUGAAUGUGUAGAAGGGCCAUAAA [Ex3 #54] (Eterna round: R97, puzzle: Exclusion 3)",27.4 nM,26.8 nM,–,–,–,–
"AAAUAGGUAGGAUAUACAUGAGGAUCACCCAUGUGCUGCCGCGCGUCAAUCUCUUCACGUAGAAGGGCCCAGAC [Reveara] (Eterna round: R97, puzzle: Exclusion 3)",13.1 nM,14.1 nM,–,–,–,–
"AAAUCACAUGAGGAUCACCCAUGUGAGGAUAUGAUACUAUGUACUUCGGUACAUAGUAUCAGAAGGCAUGUGGA [Ex1-3: 89] (Eterna round: R96, puzzle: Exclusion 1)",43.1 nM,29.5 nM,–,–,–,22.6 nM
AAAUCACAUGAGGAUCACCCAUGUGAGGAUAUGAUACUAUGUACUUCGGUACAUAGUAUCAGAAGGCAUGUGGA [Ex1-3: 89] (puzzle: Exclusion 1),–,–,–,28.2 nM,–,–
"AAAUCGUGAGGAUAUCCAAUAUAUGACAUGAGGAUCACCCAUGUUUCCACUCGUACCUCCGGAGAAGGCACAAUAA [Ex5 #75] (Eterna round: R97, puzzle: Exclusion 5)",27.2 nM,27.1 nM,–,–,–,–
"AAAUGAUGAGGAUAUACAUGAGGAUCACCCAUGUGUAAAAAUAAAUACACAAAAGAAAGUAGAAGGCAUCAAAA [Ex 3 May 12] (Eterna round: R96, puzzle: Exclusion 3)",–,–,–,–,–,25.1 nM
"AAAUGGAACAGAGGAUAUAGGGACAUGAGGAUCACCCAUGUUUUUUUUGGUUGGGUGGGUUUGGGCUAGAAGGCUGGGAAGAAA [Kawasakiqro] (Eterna round: R96, puzzle: Exclusion NG 2)",30.2 nM,33 nM,–,–,–,26.8 nM
"AAAUUAGCAAGUAGAUCCGACAUGAGGAUCACCCAUGUAAUCUAAUAUUACGCUGCACGAAAGUGCGCUCGUCUUAG [Sensor-V1 #14] (Eterna round: R97, puzzle: Sensor, turn-off variant 1)",416 nM,470 nM,–,–,–,–
